Laboratory results taken from publication PMC3829993.

Tests used:
purified protein [1] = substrate: NC(=O)C1=CN([C@@H]2O[C@H](COP(=O)(O)OP(=O)(O)OC[C@H]3O[C@@H](n4cnc5c(N)ncnc54)[C@H](O)[C@@H]3O)[C@@H](O)[C@H]2O)C=CC1; experiment: purified protein; settings: varied: cofactor
purified protein [2] = substrate: NC(=O)C1=CN([C@@H]2O[C@H](COP(=O)(O)OP(=O)(O)OC[C@H]3O[C@@H](n4cnc5c(N)ncnc54)[C@H](OP(=O)(O)O)[C@@H]3O)[C@@H](O)[C@H]2O)C=CC1; experiment: purified protein; settings: varied: cofactor

B1: SMFMO (Stenotrophomonas maltophilia K279a) (protein)
chain: MDSVDVVVIGGGQSGLSAGYFLRRSGLSYVILDAEASPGGAWQHAWHSLHLFSPAGWSSIPGWPMPASQGPYPARAEVLAYLAQYEQKYALPVLRPIRVQRVSHFGERLRVVARDGRQWLARAVISATGTWGEAYTPEYQGLESFAGIQLHSAHYSTPAPFAGMRVAIIGGGNSGAQILAEVSTVAETTWITQHEPAFLADDVDGRVLFERATERWKAQQEGREPDLPPGGFGDIVMVPPVLDARARGVLAAVPPPARFSPTGMQWADGTERAFDAVIWCTGFRPALSHLKGLDLVTPQGQVEVDGSGLRALAVPSVWLLGYGDWNGMASATLIGVTRYAREAVRQVTAYCADHQDR
Protein B1 has a Km (purified protein [1]) of 23.7 ± 9.1 M x 10^-6, a kcat (purified protein [1]) of 0.029 ± 0.003 s⁻¹ and a kcat/Km (purified protein [1]) of 1220 M⁻¹ s⁻¹. For the same protein, the Km (purified protein [2]) was 27.3 ± 5.3 M x 10^-6, the kcat (purified protein [2]) was 0.022 ± 0.002 s⁻¹ and the kcat/Km (purified protein [2]) was 805 M⁻¹ s⁻¹.
